# Source: PMC7570391, “Cyclic Di-adenosine Monophosphate Regulates Metabolism and Growth in the Oral Commensal Streptococcus mitis” (Microorganisms, 2020)
# B1: Pde2 (Streptococcus mitis NCTC 12261) (protein)
# chain: MDICHQILEKIKEYDTIIIHRHMKPDPDALGSQVGLKALLKHHFPEKTIKAVGFDEPTLTWMAEMDLVEDSAYQGALVIVCDTANTARIDDKRYSQGDFLIKIDHHPNDDVYGDLSWVDTSSSSASEMITLFAQTTQLALSDRAAELLFAGIIGDTGRFLYPSTTERTLRLAAYLREHNFDFAALTRKMDTMSYKIAKLQGYIYDHLEVDENGAARVILSQEILKRFNVTDAETAAIVGAPGRIDSVSLWGIFVEQADGHYRVRLRSKIHPINEIAKEHDGGGHPLASGANSYSLEENEIIYQKLKNLLKN
# How the values were obtained:
# [1] = tested on: Nc1ncnc2c1ncn2[C@@H]1O[C@H](COP(=O)(O)O[C@H]2[C@@H](O)[C@H](n3cnc4c(N)ncnc43)O[C@@H]2COP(=O)(O)O)[C@@H](O)[C@H]1O; assay: purified protein; settings: 1 mM MnCl2, 50 mM Tris-HCl pH 7.5, 37 °C, 5 μM enzyme, product AMP
# Description: AMP formation, reversed-phase HPLC, Michaelis-Menten fit on Pde1_53–657
# [2] = tested on: [H][C@@]1(O)[C@]2([H])OP(=O)(O)OC[C@@]3([H])O[C@@]([H])(n4cnc5c(N)ncnc54)[C@]([H])(O)[C@]3([H])OP(=O)(O)OC[C@@]2([H])O[C@@]1([H])n1cnc2c(N)ncnc21; assay: purified protein; settings: 1 mM MnCl2, 50 mM Tris-HCl pH 7.5, 37 °C, 2.5 μM enzyme, product pApA
# Description: pApA formation, reversed-phase HPLC, Michaelis-Menten fit on Pde1_53–657
# [3] = biological target: Pde2, full-length S. mitis DhhP-type phosphodiesterase (SM12261_1122) (Streptococcus mitis CCUG 31611); assay: SEC; Superose 6 Increase 10/300 GL on an ÄKTA Pure 25; SEC buffer 1x PBS pH 7.4 with 10% glycerol; apparent molecular weight from vE/v0 against gel filtration markers (12,000-200,000 Da)
# [4] = biological target: CdaA_(103–285), truncated S. mitis CdaA-type diadenylate cyclase (SM12261_1351) lacking the transmembrane helices (Streptococcus mitis CCUG 31611); assay: as above
# [5] = substrate: Nc1ncnc2c1ncn2[C@@H]1O[C@H](COP(=O)(O)O[C@H]2[C@@H](O)[C@H](n3cnc4c(N)ncnc43)O[C@@H]2COP(=O)(O)O)[C@@H](O)[C@H]1O; assay: AMP formation, reversed-phase HPLC, Michaelis-Menten fit; assay type: biochemical, Streptococcus mitis; settings: 1 mM MnCl2, 50 mM Tris-HCl pH 8.5, 37 °C, 0.05 μM enzyme, product AMP
# Description: (§1) AMP formation, reversed-phase HPLC, Michaelis-Menten fit on Pde2
# [6] = substrate: [H][C@@]1(O)[C@]2([H])OP(=O)(O)OC[C@@]3([H])O[C@@]([H])(n4cnc5c(N)ncnc54)[C@]([H])(O)[C@]3([H])OP(=O)(O)OC[C@@]2([H])O[C@@]1([H])n1cnc2c(N)ncnc21; assay: as above; assay type: biochemical, Streptococcus mitis; settings: 1 mM MnCl2, 50 mM Tris-HCl pH 8.5, 37 °C, 10 μM enzyme, product AMP
# Description: as §1
molecule,measurement,setting,value
Pde1_53–657 (Streptococcus mitis NCTC 12261),Km,[1],152.4 ± 03.6 µM
same,Vmax,[1],748 µM/min
same,kcat,[1],2.49 ± 0.61 s⁻¹
same,kcat/Km,[1],16400 M⁻¹ s⁻¹
same,Km,[2],241.3 ± 11.6 µM
same,Vmax,[2],621 µM/min
same,kcat,[2],4.14 ± 1.99 s⁻¹
same,kcat/Km,[2],17000 M⁻¹ s⁻¹
"Pde2, full-length S. mitis DhhP-type phosphodiesterase (SM12261_1122) (enzyme)",stoichiometry N,[3],2
"CdaA_(103–285), truncated S. mitis CdaA-type diadenylate cyclase (SM12261_1351) lacking the transmembrane helices (domain or fragment)",stoichiometry N,[4],2
B1,Km,[5],877 ± 312 µM
same,Vmax,[5],10600 µM/min
same,kcat,[5],3530 ± 623 s⁻¹
same,kcat/Km,[5],4.02e+06 M⁻¹ s⁻¹
same,Km,[6],148.5 ± 34.8 µM
same,Vmax,[6],46.8 µM/min
same,kcat,[6],0.078 ± 0.005 s⁻¹
same,kcat/Km,[6],525 M⁻¹ s⁻¹
